Measured values from patent publication US20100216975A1.

Columns and labels:
[1] = molecular target: Human EphA2-Fc fusion protein (human EphA2 fused with the Fc portion of a human IgG1) (human) (UniProt P29317); assay: single point ELISA: periplasmic Fab captured on 500 ng goat anti-human Fab, biotinylated human EphA2-Fc, neutravidin-HRP
[2] = molecular target: Human EphA2-Fc fusion protein (human EphA2 fused with the Fc portion of a human IgG1) (human) (UniProt P29317); assay: single point ELISA, 500 ng goat anti-human Fab capture, biotinylated EphA2-Fc; plate of clone VH-233/VL-8G7
[3] = molecular target: Human EphA2-Fc fusion protein (human EphA2 fused with the Fc portion of a human IgG1) (human) (UniProt P29317); assay: single point ELISA, 500 ng goat anti-human Fab capture, biotinylated EphA2-Fc; plate of clone VH-2G6/VL-12C8
[4] = molecular target: Human EphA2-Fc fusion protein (human EphA2 fused with the Fc portion of a human IgG1) (human) (UniProt P29317); assay: single point ELISA, 500 ng goat anti-human Fab capture, biotinylated EphA2-Fc; plate of clone VH-6H11/VL-8G7
[5] = molecular target: Human EphA2-Fc fusion protein (human EphA2 fused with the Fc portion of a human IgG1) (human) (UniProt P29317); assay: single point ELISA: periplasmic Fab captured on 500 ng goat anti-human Fab, biotinylated human EphA2-Fc, neutravidin-HRP; remark: listed apart in the source
[6] = molecular target: Human EphA2-Fc fusion protein (human EphA2 fused with the Fc portion of a human IgG1) (human) (UniProt P29317); assay: single point ELISA: periplasmic Fab captured on 20 ng goat anti-human Fab, biotinylated human EphA2-Fc, neutravidin-HRP
[7] = molecular target: Human EphA2-Fc fusion protein (human EphA2 fused with the Fc portion of a human IgG1) (human) (UniProt P29317); assay: single point ELISA, 500 ng goat anti-human Fab capture, biotinylated EphA2-Fc; plate of clone VH-7E8/VL-8G7
[8] = molecular target: Human EphA2-Fc fusion protein (human EphA2 fused with the Fc portion of a human IgG1) (human) (UniProt P29317); assay: single point ELISA: periplasmic Fab captured on 500 ng goat anti-human Fab, biotinylated human EphA2-Fc, neutravidin-HRP; remark: listed apart in the source
[9] = molecular target: Human EphA2-Fc fusion protein (human EphA2 fused with the Fc portion of a human IgG1) (human) (UniProt P29317); assay: single point ELISA: periplasmic Fab captured on 100 ng goat anti-human Fab, biotinylated human EphA2-Fc, neutravidin-HRP
[10] = molecular target: Human EphA2-Fc fusion protein (human EphA2 fused with the Fc portion of a human IgG1) (human) (UniProt P29317); assay: single point ELISA, 500 ng goat anti-human Fab capture, biotinylated EphA2-Fc; plate of clone VH-233/VL-12C8
[11] = molecular target: Human EphA2-Fc fusion protein (human EphA2 fused with the Fc portion of a human IgG1) (human) (UniProt P29317); assay: SPR (BIAcore 3000), IgG over immobilized EphA2-Fc (~500 RU), 1:1 Langmuir fit
[12] = molecular target: Human EphA2-Fc fusion protein (human EphA2 fused with the Fc portion of a human IgG1) (human) (UniProt P29317); assay: SPR (BIAcore 3000), IgG over immobilized EphA2-Fc, 1:1 Langmuir fit

Sequence of Human EphA2-Fc fusion protein (human EphA2 fused with the Fc portion of a human IgG1) (human) (P29317 24-534 limits assumed): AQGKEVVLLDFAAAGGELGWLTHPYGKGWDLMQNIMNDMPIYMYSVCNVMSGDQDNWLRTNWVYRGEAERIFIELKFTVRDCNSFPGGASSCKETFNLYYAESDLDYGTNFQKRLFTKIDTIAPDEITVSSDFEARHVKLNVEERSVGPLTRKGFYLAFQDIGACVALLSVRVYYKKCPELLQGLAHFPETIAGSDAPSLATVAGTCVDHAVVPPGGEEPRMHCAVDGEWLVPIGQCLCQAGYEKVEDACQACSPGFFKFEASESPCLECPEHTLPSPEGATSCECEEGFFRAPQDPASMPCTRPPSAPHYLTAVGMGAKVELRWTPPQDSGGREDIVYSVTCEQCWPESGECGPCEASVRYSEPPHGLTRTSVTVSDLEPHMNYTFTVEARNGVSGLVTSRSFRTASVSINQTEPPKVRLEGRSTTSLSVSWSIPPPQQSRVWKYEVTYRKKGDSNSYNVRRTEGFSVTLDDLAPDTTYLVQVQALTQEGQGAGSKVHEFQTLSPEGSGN

irrelevant antibody (MEDI-493)
OD450 (background signal) [1]: 0.07 to 0.1 | OD450 (background signal) [2]: 0.2 | OD450 (background signal) [3]: 0.3 | OD450 (background signal) [4]: 0.2 | OD450 (background signal) [5]: 0.06 to 0.2 | OD450 (background signal) [6]: 0.1 | OD450 (background signal) [7]: 0.2 | OD450 (background signal) [8]: 0.3 | OD450 (background signal) [9]: 0.1 to 0.4 | OD450 (background signal) [10]: 0.1

B1: mouse anti-human EphA2 monoclonal antibody EA2 (antibody, from a related filing, V domains shown)
VH: DVKLVESGGGLVKPGGSLKLSCAASGFTFSSYTMSWVRQTPEKRLEWVATISSGGTYTYYPDSVKGRFTISRDNAKNTLYLQMSSLKSEDTAMYYCTREAIFTYWGQGTLVTVSA
VL: DIKMTQSPSSMYASLGERVTITCKASQDINNYLSWFQQKPGKSPKTLIYRANRLVDGVPSRFSGSGSGQDYSLTISSLEYEDMGIYYCLKYDEFPYTFGGGTKLEIK
Kd [11]: 5940 pM | koff [11]: 0.00307 s⁻¹ | kon [11]: 517000 M⁻¹ s⁻¹

B2: mouse anti-human EphA2 monoclonal antibody B233 (antibody, from a related filing, V domains shown)
VH: EVKLVESGGGLVQPGGSLSLSCAASGFTFTDYSMNWVRQPPGKALEWLGFIRNKANDYTTEYSASVKGRFTISRDNSQSILYLQMNALRAEDSATYYCVRYPRYHAMDSWGQGTSVTVSS
VL: DIVLTQSPATLSVTPGDSVNLSCRASQSISNNLHWYQQKSHESPRLLIKYVFQSISGIPSRFSGSGSGTDFTLSINSVETEDFGMYFCQQSNSWPLTFGAGTKLELK
Kd [12]: 400 pM | koff [12]: 0.00011 s⁻¹ | kon [12]: 280000 M⁻¹ s⁻¹

B3: chimaeric form of mAb B233 (VH-233/VL-233) as full length human IgG1 (antibody, from a related filing, V domains shown)
VH: B2 VH
VL: B2 VL
Kd [12]: 300 pM | koff [12]: 8e-05 s⁻¹ | kon [12]: 240000 M⁻¹ s⁻¹
